This test deals with T1, huCdc7 fused to DNA-binding domain of Gal4 (human, UniProt P04386 1-147; O00311 1-574, limits assumed).
T1 construct: Yeast two-hybrid bait in strain CG1945; also called huCdc7 (two-hybrid bait)
Put plainly: yeast two-hybrid assay, lacZ activity. As for the experimental part:
In order to determine the region on H37 protein essential for binding with huCdc7, a series of deletion derivatives of H37 at N- and C-terminals as shown in FIG. 7 was prepared, each of them was expressed in yeast as a fusion protein with Gal4 activated domain and an interaction of each deletion derivative with huCdc7 was investigated by means of a two-hybrid assay. […] However, when 50 amino acids at N-terminal were further deleted whereupon the H37 motif C was deleted, an interaction with huCdc7 was completely lost (ΔN3).

B1: H37 deletion derivative ΔP1 fused to Gal4 activation domain (other, not shown: small tags and cut ends)
chain: MNSGAMRIHSKGHFQGGIQVKNEKNRPSLKSLKTDNRPEKSKCKPLWGKVFYLDLPSVTISEKLQKDIKDLGGRVEEFLSKDISYLISNKKEAKFAQTLGRISPVPSPESAYTAETTSPHPSHDGSSFKSPDTVCLSRGKLLVEKAIKDHDFIPSNSILSNALSWGVKILHIDDIRYYIEQKKKELYLLKKSSTSVRDGGKRVGSGAQKTRTGRLKKPFVKVEDMSQLYRPFYLQ
As for B1, the binding result is listed as “no binding”.

B2: H37 deletion derivative ΔB fused to Gal4 activation domain (other, not shown: small tags and cut ends)
chain: MNSGAMRIHSKGHFQGGIQVKNEKNRPSLKSLKTDNRPEKSKCKPLWGKVFYLDLPSVTISEKLQKDIKDLGGRVEEFLSKDISYLISNKKEAKFAQTLGRISPVPSPESAYTAETTSPHPSHDGSSFKSPDTVCLSRGKLLVEKAIKDHDFIPSNSILSNALSWGVKILHIDDIRYYIEQKKKELYLLKKSSTSVRDGGKRVGSGAQKTRTGRLKKPFVKVEDMSQLYRPFYLQLTNMPFINYSIQKPCSPFDVDKPSSMQKQTQVKLRIQTDGDKYGGTSIQLQLKEKKKKGYCECCLQKYED
notes: The range is worked out from the printed count of deleted residues and a length of 674; also called deltaB
In the case of B2, the “interaction relative to the full-length clone” value was about 10%.

B3: H37 deletion derivative ΔN3 fused to Gal4 activation domain (other, not shown: small tags and cut ends)
chain: LETHLLSEQHRNFAQSNQYQVVDDIVSKLVFDFVEYEKDTPKKKRIKYSVGSLSPVSASVLKKTEQKEKVELQHISQKDCQEDDTTVKEQNFLYKETQETEKKLLFISEPIPHPSNELRGLNEKMSNKCSMLSTAEDDIRQNFTQLPLHKNKQECILDISEHTLSENDLEELRVDHYKCNIQASVHVSDFSTDNSGSQPKQKSDTVLFPAKDLKEKDLHSIFTHDSGLITINSSQEHLTVQAKAPFHTPPEEPNECDFKNMDSLPSGKIHRKVKIILGRNRKENLEPNAEFDKRTEFITQEENRICSSPVQSLLDLFQTSEEKSEFLGFTSYTEKSGICNVLDIWEEENSDNLLTAFFSSPSTSTFTGF
notes: The range is worked out from the printed counts of deleted residues and a length of 674
For the molecule B3, the binding result is listed as “no binding”.

The values above are taken from patent US6897054 (JAPAN SCIENCE AND TECHNOLOGY AGENCY, dated 2005).
